# Laboratory results as given in KR20150077770A (dated 2015).
# T1: HRS (Histidyl-tRNA synthetase), purified recombinant antigen (human, UniProt P12081 1-509, limits assumed)
# T1 construct: It was immobilised on the GLC chip (SPR), coupled to Luminex beads and used as the ELISA standard; also called HRS 항원; 재조합 HRS 표준물질
# T1 sequence (looked up): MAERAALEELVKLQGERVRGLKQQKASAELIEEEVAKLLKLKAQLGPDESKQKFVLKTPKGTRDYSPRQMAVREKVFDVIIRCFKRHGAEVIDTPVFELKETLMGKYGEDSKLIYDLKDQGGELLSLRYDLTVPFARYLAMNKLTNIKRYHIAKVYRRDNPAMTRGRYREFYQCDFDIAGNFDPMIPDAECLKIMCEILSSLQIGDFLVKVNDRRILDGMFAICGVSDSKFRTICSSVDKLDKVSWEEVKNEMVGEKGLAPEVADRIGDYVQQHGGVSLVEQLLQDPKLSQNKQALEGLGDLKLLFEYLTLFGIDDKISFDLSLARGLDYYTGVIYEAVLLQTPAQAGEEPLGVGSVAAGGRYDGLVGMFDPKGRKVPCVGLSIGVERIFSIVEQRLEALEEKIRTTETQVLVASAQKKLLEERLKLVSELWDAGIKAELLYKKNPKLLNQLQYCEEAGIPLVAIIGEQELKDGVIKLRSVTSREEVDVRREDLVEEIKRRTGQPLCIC
# T2: YRS (Tyrosyl-tRNA synthetase), purified recombinant (UniProt P54577 1-528, limits assumed)
# T2 construct: also called 타이로실-tRNA 합성효소
# T2 sequence (looked up): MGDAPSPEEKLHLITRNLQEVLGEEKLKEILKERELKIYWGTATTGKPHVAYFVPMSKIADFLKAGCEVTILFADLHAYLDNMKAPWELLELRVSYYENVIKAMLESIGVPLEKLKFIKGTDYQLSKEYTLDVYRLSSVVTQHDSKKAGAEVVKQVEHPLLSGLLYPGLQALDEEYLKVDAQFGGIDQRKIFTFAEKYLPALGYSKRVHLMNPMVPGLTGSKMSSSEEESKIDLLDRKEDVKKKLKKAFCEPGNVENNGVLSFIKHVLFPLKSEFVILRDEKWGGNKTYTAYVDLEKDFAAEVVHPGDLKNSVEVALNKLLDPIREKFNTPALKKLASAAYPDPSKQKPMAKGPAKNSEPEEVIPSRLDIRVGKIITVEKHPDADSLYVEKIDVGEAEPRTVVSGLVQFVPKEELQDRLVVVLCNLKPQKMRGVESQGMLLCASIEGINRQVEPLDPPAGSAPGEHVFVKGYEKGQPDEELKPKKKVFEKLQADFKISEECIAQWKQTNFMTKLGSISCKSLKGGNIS
# T3: NRS (Asparaginyl-tRNA synthetase), purified recombinant (UniProt O43776 1-548, limits assumed)
# T3 construct: also called 아스파라기닐딜-tRNA 합성효소
# T3 sequence (looked up): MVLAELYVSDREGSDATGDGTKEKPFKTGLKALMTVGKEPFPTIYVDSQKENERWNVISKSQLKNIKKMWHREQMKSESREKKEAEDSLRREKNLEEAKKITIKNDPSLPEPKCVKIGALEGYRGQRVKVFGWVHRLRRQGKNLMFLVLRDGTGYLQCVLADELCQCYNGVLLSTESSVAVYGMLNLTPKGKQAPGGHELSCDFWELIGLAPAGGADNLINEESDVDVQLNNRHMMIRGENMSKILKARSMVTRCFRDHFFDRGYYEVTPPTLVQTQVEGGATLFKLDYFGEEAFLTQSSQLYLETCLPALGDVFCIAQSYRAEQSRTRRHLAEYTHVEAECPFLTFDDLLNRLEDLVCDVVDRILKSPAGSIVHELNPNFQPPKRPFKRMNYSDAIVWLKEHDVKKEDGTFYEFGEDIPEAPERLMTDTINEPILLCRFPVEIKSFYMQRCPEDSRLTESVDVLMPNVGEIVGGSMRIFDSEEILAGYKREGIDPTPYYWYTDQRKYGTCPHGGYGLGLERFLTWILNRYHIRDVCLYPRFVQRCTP
# T4: GRS (Glycyl-tRNA synthetase), purified recombinant (UniProt P41250 55-739, limits assumed)
# T4 construct: also called 글리실-tRNA 합성효소
# T4 sequence (looked up): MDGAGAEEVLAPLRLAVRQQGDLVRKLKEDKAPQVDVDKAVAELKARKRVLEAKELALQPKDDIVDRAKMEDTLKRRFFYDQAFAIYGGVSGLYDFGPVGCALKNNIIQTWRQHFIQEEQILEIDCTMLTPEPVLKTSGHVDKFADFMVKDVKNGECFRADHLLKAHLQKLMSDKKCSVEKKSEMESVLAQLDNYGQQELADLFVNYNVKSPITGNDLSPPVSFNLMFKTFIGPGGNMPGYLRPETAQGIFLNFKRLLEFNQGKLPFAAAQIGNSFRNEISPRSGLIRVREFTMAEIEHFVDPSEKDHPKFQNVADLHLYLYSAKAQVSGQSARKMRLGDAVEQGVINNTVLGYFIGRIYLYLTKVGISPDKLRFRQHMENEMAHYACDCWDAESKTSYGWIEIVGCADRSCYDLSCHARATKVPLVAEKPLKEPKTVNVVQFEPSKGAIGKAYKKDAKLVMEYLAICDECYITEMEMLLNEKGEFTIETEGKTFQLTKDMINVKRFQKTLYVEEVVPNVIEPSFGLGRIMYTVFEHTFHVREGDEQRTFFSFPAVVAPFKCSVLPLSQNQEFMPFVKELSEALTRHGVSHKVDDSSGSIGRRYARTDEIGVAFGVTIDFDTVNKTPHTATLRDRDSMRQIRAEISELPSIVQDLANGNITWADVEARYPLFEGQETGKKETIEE
# T5: WRS (Tryptophanyl-tRNA synthetase), purified recombinant (UniProt P23381 1-471, limits assumed)
# T5 construct: also called 트립토파닐-tRNA 합성효소
# T5 sequence (looked up): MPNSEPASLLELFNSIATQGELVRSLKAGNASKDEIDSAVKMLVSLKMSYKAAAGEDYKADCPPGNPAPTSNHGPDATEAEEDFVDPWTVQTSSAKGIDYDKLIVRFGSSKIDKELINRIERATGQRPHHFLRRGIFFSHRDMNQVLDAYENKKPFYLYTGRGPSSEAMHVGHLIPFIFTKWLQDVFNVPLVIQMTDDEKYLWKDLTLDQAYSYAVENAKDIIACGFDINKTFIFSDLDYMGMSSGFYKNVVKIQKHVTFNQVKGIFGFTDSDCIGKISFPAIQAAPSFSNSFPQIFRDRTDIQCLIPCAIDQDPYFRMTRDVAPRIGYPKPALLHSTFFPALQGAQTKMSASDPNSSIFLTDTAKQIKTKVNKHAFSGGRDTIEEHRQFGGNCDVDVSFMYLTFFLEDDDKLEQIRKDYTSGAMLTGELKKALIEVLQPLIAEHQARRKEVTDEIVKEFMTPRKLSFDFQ
# T6: AIMP1 (Aminoacyl-tRNA-synthetase-interacting multifunctional protein 1), purified recombinant (UniProt Q12904 1-312, limits assumed)
# T6 construct: also called AIMP1(p43); p43
# T6 sequence (looked up): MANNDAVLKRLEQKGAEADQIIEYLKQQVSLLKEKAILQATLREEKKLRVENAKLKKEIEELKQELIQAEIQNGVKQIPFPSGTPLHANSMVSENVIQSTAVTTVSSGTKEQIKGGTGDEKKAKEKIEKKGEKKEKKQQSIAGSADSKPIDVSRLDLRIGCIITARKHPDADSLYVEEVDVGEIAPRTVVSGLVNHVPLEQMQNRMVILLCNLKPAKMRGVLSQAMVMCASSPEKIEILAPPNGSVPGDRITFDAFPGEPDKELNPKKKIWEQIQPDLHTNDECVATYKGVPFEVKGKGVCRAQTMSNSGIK
# B1: anti-HRS scFv Biocon-H1 (scFv)
# scFv: EVQLLESGGGLVQPGGSLRLSCAASGFTFSGYYMSWVRQAPGKGLEWVSLISHGGGNIYYADSVKGRFTISRDNSKNTLYLQMNSLRAEDTAVYYCARFPLEFDYWGQGTLVTVSSGGGGSGGGGSGGGGSQSVLTQPPSASGTPGQRVTISCTGSSSNIGSNAVSWYQQLPGTAPKLLIYDDNKRPSGVLDRFSGSKSGTSASLAISGLRSEDEADYYCGTWDDSLSGYVFGGGTKLTVL
# notes: Single clone from a human VH3-23/VL1g phage scFv library, expressed in E. coli periplasm; Periplasmic extract was used in the western blot and Luminex assay, Ni-NTA-purified scFv in SPR and ELISA; also called 항 HRS scFv 항체; 본 발명의 항체; not shown: tags from the pComb3X vector (purified on Ni-NTA, detected with anti-HA)
# How the values were obtained:
# [1] = molecular target: T1, HRS (Histidyl-tRNA synthetase), …; test: SPR (ProteOn XPR36), HRS amine-coupled on GLC chip, purified scFv 500-30 nM injected, 25 C
# [2] = molecular target: T7, KRS (Lysyl-tRNA synthetase), purified recombinant (UniProt Q15046 1-597, limits assumed); test: Luminex multiplex bead assay, anti-HA-biotin / SA-PE detection
# T7 construct: also called 리실-tRNA 합성효소
# [3] = molecular target: T2, YRS (Tyrosyl-tRNA synthetase), purified …; test: as above
# [4] = molecular target: T3, NRS (Asparaginyl-tRNA synthetase), …; test: as above
# [5] = molecular target: T4, GRS (Glycyl-tRNA synthetase), purified …; test: as above
# [6] = molecular target: T8, SRS (Seryl-tRNA synthetase), purified recombinant (UniProt P49591 1-514, limits assumed); test: as above
# T8 construct: also called 세릴-tRNA 합성효소
# [7] = molecular target: T5, WRS (Tryptophanyl-tRNA synthetase), …; test: as above
# [8] = molecular target: T6, AIMP1 …; test: as above
# T8 sequence (P49591 whole entry): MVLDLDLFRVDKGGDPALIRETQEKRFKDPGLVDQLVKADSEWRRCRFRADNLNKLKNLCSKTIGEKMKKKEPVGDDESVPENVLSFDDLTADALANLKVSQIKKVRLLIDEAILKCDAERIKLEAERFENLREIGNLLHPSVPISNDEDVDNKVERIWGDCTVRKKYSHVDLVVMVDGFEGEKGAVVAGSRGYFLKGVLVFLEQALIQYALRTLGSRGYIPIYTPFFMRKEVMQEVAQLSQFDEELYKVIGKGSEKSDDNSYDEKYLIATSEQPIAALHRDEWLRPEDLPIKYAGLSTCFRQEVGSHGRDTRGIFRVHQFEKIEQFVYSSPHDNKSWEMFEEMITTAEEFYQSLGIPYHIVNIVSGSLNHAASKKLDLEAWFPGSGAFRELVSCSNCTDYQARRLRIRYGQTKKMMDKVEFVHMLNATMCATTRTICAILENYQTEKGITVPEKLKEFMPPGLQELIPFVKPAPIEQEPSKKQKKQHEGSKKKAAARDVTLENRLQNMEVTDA
# T7 sequence (Q15046 whole entry): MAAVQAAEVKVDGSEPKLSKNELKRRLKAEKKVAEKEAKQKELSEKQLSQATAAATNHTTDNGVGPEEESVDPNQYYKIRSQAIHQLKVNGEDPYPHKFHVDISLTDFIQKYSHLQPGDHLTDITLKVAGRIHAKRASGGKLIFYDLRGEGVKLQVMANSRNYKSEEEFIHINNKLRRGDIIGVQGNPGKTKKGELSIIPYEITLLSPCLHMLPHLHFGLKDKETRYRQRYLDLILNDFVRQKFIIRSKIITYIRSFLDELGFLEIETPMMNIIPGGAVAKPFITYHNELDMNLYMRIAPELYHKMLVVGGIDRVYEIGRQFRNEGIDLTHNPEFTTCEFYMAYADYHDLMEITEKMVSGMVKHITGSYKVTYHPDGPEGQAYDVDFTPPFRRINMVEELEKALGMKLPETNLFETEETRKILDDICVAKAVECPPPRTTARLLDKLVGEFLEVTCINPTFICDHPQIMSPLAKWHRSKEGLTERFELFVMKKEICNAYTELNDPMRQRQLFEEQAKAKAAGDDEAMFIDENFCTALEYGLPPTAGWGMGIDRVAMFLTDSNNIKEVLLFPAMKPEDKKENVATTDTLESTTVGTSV
binder,measurement,setting,value
B1,Kd,[1],70 nM
same,binding result,[2],no binding
same,binding result,[3],no binding
same,binding result,[4],no binding
same,binding result,[5],no binding
same,binding result,[6],no binding
same,binding result,[7],no binding
same,binding result,[8],no binding
